Test results taken from patent publication US20120121633A1, “HIV CD4 BINDING SITE BASED COVALENT IMMUNOGEN COMPOSITIONS” (priority 2010, published 2012).

Tests used:
[1] = biological target: gp120 on intact HIV virions (strain MN) (HIV strain MN) (UniProt P05877); experiment: MAb (7.5 µg/ml) with intact HIV virions, complexes captured on Protein G, p24 ELISA
[2] = biological target: gp120 on intact HIV virions (strain MN) (HIV strain MN) (UniProt P05877); experiment: MAb (0.8 µg/ml) with intact HIV virions, complexes captured on Protein G, p24 ELISA
[3] = biological target: gp120 on intact HIV virions (strain MN) (HIV strain MN) (UniProt P05877); experiment: MAb (45 µg/ml) with intact HIV virions, complexes captured on Protein G, p24 ELISA

## MAb 2G12 (antibody)
[1]
  A490 (MAb binding of HIV in the absence of competitors): 0.246 A490

## MAb 447-52D (antibody)
[2]
  A490 (MAb binding of HIV in the absence of competitors): 0.291 A490

## MAb clone b12 (antibody)
[3]
  A490 (MAb binding of HIV in the absence of competitors): 0.176 A490
